Measured values: the MegaScale stability set (Tsuboyama et al. 2023)

B1: EHEE_rd2_1257 (parent)
chain: EEERTFTNEEEARKAKKEAEKRGLRVTVTKDGTTWRVRIG

Variants of: B1
Experiment: folding stability dG (cDNA display proteolysis); higher = more stable
Conditions: PBS, room temperature

Compared with EEERTFTNEEEARKAKKEAEKRGLRVTVTKRGTTWRVRIG [D31R], EEERTFTNEEEARKAKKEAEKRGLRVTVTKYGTTWRVRIG [D31Y] is higher in “folding stability dG” value: 1.32 kcal/mol for the first, 1.75 kcal/mol for the second.

First: EEERTFTNEEEARKAKKEAEKRGLRVTVTKHGTTWRVRIG [D31H]
Second: EEERTFTNEEEARKAKKEAEKRGLRVTVTKSGTTWRVRIG [D31S]
The “folding stability dG” value of the first is higher: 1.78 kcal/mol for the first, 1.72 kcal/mol for the second.

First: EEERTFTNEEEARKAKKEAEKRGLRVTVTKMGTTWRVRIG [D31M]
Second: EEERTFTNEEEARKAKKEAEKRGLRVTVTKQGTTWRVRIG [D31Q]
The “folding stability dG” value of the first is higher: 1.74 kcal/mol for the first, 1.7 kcal/mol for the second.

Going from EEERTFTNEEEARKAKKEAEKRGLRVTVTKKGTTWRVRIG [D31K] to EEERTFTNEEEARKAKKEAEKRGLRVTVTKIGTTWRVRIG [D31I], the “folding stability dG” value rises from 1.34 kcal/mol to 2.22 kcal/mol.

First: EEERTFTNEEEARKAKKEAEKRGLRVTVTKGGTTWRVRIG [D31G]
Second: EEERTFTNEEEARKAKKEAEKRGLRVTVTKNGTTWRVRIG [D31N]
The “folding stability dG” value of the first is lower: 0.303 kcal/mol for the first, 1.57 kcal/mol for the second.

Going from EEERTFTNEEEARKAKKEAEKRGLRVTVTKTGTTWRVRIG [D31T] to EEERTFTNEEEARKAKKEAEKRGLRVTVTKLGTTWRVRIG [D31L], the “folding stability dG” value falls from 1.76 kcal/mol to 1.74 kcal/mol.

First: EEERTFTNEEEARKAKKEAEKRGLRVTVTKWGTTWRVRIG [D31W]
Second: EEERTFTNEEEARKAKKEAEKRGLRVTVTKVGTTWRVRIG [D31V]
The “folding stability dG” value of the first is lower: 1.51 kcal/mol for the first, 2.27 kcal/mol for the second.

First: EEERTFTNEEEARKAKKEAEKRGLRVTVTKDTTTWRVRIG [G32T]
Second: EEERTFTNEEEARKAKKEAEKRGLRVTVTKDHTTWRVRIG [G32H]
The “folding stability dG” value of the first is lower: 0.399 kcal/mol for the first, 0.713 kcal/mol for the second.

Compared with EEERTFTNEEEARKAKKEAEKRGLRVTVTKDKTTWRVRIG [G32K], EEERTFTNEEEARKAKKEAEKRGLRVTVTKDRTTWRVRIG [G32R] is lower in “folding stability dG” value: 0.693 kcal/mol for the first, 0.337 kcal/mol for the second.

Compared with EEERTFTNEEEARKAKKEAEKRGLRVTVTKDETTWRVRIG [G32E], EEERTFTNEEEARKAKKEAEKRGLRVTVTKDQTTWRVRIG [G32Q] is lower in “folding stability dG” value: 1.26 kcal/mol for the first, 0.902 kcal/mol for the second.

Going from EEERTFTNEEEARKAKKEAEKRGLRVTVTKDYTTWRVRIG [G32Y] to EEERTFTNEEEARKAKKEAEKRGLRVTVTKDVTTWRVRIG [G32V], the “folding stability dG” value rises from 0.01 kcal/mol to 0.363 kcal/mol.

Going from EEERTFTNEEEARKAKKEAEKRGLRVTVTKDITTWRVRIG [G32I] to EEERTFTNEEEARKAKKEAEKRGLRVTVTKDSTTWRVRIG [G32S], the “folding stability dG” value rises from -0.071 kcal/mol to 0.582 kcal/mol.

First: EEERTFTNEEEARKAKKEAEKRGLRVTVTKDDTTWRVRIG [G32D]
Second: EEERTFTNEEEARKAKKEAEKRGLRVTVTKDLTTWRVRIG [G32L]
The “folding stability dG” value of the first is higher: 1.26 kcal/mol for the first, 0.595 kcal/mol for the second.

Going from EEERTFTNEEEARKAKKEAEKRGLRVTVTKDNTTWRVRIG [G32N] to EEERTFTNEEEARKAKKEAEKRGLRVTVTKDFTTWRVRIG [G32F], the “folding stability dG” value falls from 0.966 kcal/mol to 0.011 kcal/mol.

Going from EEERTFTNEEEARKAKKEAEKRGLRVTVTKDATTWRVRIG [G32A] to EEERTFTNEEEARKAKKEAEKRGLRVTVTKDMTTWRVRIG [G32M], the “folding stability dG” value falls from 0.985 kcal/mol to 0.351 kcal/mol.

First: EEERTFTNEEEARKAKKEAEKRGLRVTVTKDGTGWRVRIG [T34G]
Second: EEERTFTNEEEARKAKKEAEKRGLRVTVTKDGTQWRVRIG [T34Q]
The “folding stability dG” value of the first is lower: 1.83 kcal/mol for the first, 1.97 kcal/mol for the second.

Compared with EEERTFTNEEEARKAKKEAEKRGLRVTVTKDGTMWRVRIG [T34M], EEERTFTNEEEARKAKKEAEKRGLRVTVTKDGTIWRVRIG [T34I] is higher in “folding stability dG” value: 2.37 kcal/mol for the first, 2.63 kcal/mol for the second.

Compared with EEERTFTNEEEARKAKKEAEKRGLRVTVTKDGTEWRVRIG [T34E], EEERTFTNEEEARKAKKEAEKRGLRVTVTKDGTHWRVRIG [T34H] is higher in “folding stability dG” value: 1.81 kcal/mol for the first, 2.12 kcal/mol for the second.

First: EEERTFTNEEEARKAKKEAEKRGLRVTVTKDGTLWRVRIG [T34L]
Second: EEERTFTNEEEARKAKKEAEKRGLRVTVTKDGTRWRVRIG [T34R]
The “folding stability dG” value of the first is higher: 2.76 kcal/mol for the first, 1.87 kcal/mol for the second.

First: EEERTFTNEEEARKAKKEAEKRGLRVTVTKDGTSWRVRIG [T34S]
Second: EEERTFTNEEEARKAKKEAEKRGLRVTVTKDGTNWRVRIG [T34N]
The “folding stability dG” value of the first is lower: 1.82 kcal/mol for the first, 2.02 kcal/mol for the second.

First: EEERTFTNEEEARKAKKEAEKRGLRVTVTKDGTDWRVRIG [T34D]
Second: EEERTFTNEEEARKAKKEAEKRGLRVTVTKDGTFWRVRIG [T34F]
The “folding stability dG” value of the first is lower: 1.53 kcal/mol for the first, 2.53 kcal/mol for the second.

Going from EEERTFTNEEEARKAKKEAEKRGLRVTVTKDGTAWRVRIG [T34A] to EEERTFTNEEEARKAKKEAEKRGLRVTVTKDGTKWRVRIG [T34K], the “folding stability dG” value rises from 1.68 kcal/mol to 1.97 kcal/mol.

Going from EEERTFTNEEEARKAKKEAEKRGLRVTVTKDGWTWRVRIG [T33W] to EEERTFTNEEEARKAKKEAEKRGLRVTVTKDGLTWRVRIG [T33L], the “folding stability dG” value rises from 1.65 kcal/mol to 2.12 kcal/mol.

First: EEERTFTNEEEARKAKKEAEKRGLRVTVTKDGHTWRVRIG [T33H]
Second: EEERTFTNEEEARKAKKEAEKRGLRVTVTKDGATWRVRIG [T33A]
The “folding stability dG” value of the first is lower: 2.11 kcal/mol for the first, 2.13 kcal/mol for the second.

Compared with EEERTFTNEEEARKAKKEAEKRGLRVTVTKDGQTWRVRIG [T33Q], EEERTFTNEEEARKAKKEAEKRGLRVTVTKDGDTWRVRIG [T33D] is higher in “folding stability dG” value: 2.27 kcal/mol for the first, 3.11 kcal/mol for the second.

Compared with EEERTFTNEEEARKAKKEAEKRGLRVTVTKDGMTWRVRIG [T33M], EEERTFTNEEEARKAKKEAEKRGLRVTVTKDGPTWRVRIG [T33P] is higher in “folding stability dG” value: 2 kcal/mol for the first, 2.58 kcal/mol for the second.

Compared with EEERTFTNEEEARKAKKEAEKRGLRVTVTKDGKTWRVRIG [T33K], EEERTFTNEEEARKAKKEAEKRGLRVTVTKDGFTWRVRIG [T33F] is higher in “folding stability dG” value: 2.05 kcal/mol for the first, 2.18 kcal/mol for the second.

First: EEERTFTNEEEARKAKKEAEKRGLRVTVTKDGRTWRVRIG [T33R]
Second: EEERTFTNEEEARKAKKEAEKRGLRVTVTKDGVTWRVRIG [T33V]
The “folding stability dG” value of the first is lower: 1.57 kcal/mol for the first, 1.84 kcal/mol for the second.

Going from EEERTFTNEEEARKAKKEAEKRGLRVTVTKDGNTWRVRIG [T33N] to EEERTFTNEEEARKAKKEAEKRGLRVTVTKDGYTWRVRIG [T33Y], the “folding stability dG” value falls from 2.63 kcal/mol to 2.15 kcal/mol.

Going from EEERTFTNEEEARKAKKEAEKRGLRVTVTKDGCTWRVRIG [T33C] to EEERTFTNEEEARKAKKEAEKRGLRVTVTKDGSTWRVRIG [T33S], the “folding stability dG” value falls from 2.5 kcal/mol to 2.15 kcal/mol.

Compared with EEERTFTNEEEARKAKKEAEKRGLRVTVTKDGITWRVRIG [T33I], EEERTFTNEEEARKAKKEAEKRGLRVTVTKDGETWRVRIG [T33E] is higher in “folding stability dG” value: 1.89 kcal/mol for the first, 2.77 kcal/mol for the second.

For EEERTFTNEEEARKAKKEAEKRGLRVTVTKDGGTWRVRIG [T33G], the “folding stability dG” value was 2.28 kcal/mol.
